B1: mouse SorCS2 mature extracellular segment (sSorCS2, residues 117-1072) (receptor)
chain: not shown
notes: SorCS2, mouse, residues 117-1072: the mature extracellular segment, without signal peptide and pro-peptide; Expressed from pUPE107.03 with a cystatin secretion signal peptide; For the unliganded crystal the protein was deglycosylated with EndoHf and treated with trypsin (limited proteolysis); also called SorCS2 ectodomain; wt sSorCS2; source: HEK293-ES (GnTI-) or HEK293-E, secreted, purified …

Key:
[1] = molecular target: the molecule itself; test: crystal structure; sSorCS2 mixed with proNGF 1:1.1, 1 mM calcium chloride; proNGF degraded to NGF in the drop; 0.225 M MES/bis-tris pH 6.6; 3.9 Å
[2] = molecular target: B1; test: SPR; IBIS MX96; NGF, proNGF and proBDNF amine-coupled to a P-COOH SensEye sensor; wt and mutant sSorCS2 flowed as analyte; 25 mM HEPES pH 7.4, 150 mM NaCl, 0.005 % Tween 20; 25 °C; equilibrium binding, one site saturation model (two site saturation model for proBDNF); conditions: both partners purified

| Binder | stoichiometry N [1] | Kd [2] |
| --- | --- | --- |
| B1 | 2 |  |
| pro-brain-derived neurotrophic factor (proBDNF, residues 19-249, furin sites changed to AA) (ligand) APMKEVNVHGQGNLAYPGVRTHGTLESVNGPRAGSRGLTTTSLADTFEHVIEELLDEDQKVRPNEENHKDADLYTSRVMLSSQVPLEPPLLFLLEEYKNYLDAANMSMRVAAHSDPARRGELSVCDSISEWVTAADKKTAVDMSGGTVTVLEKVPVSKGQLKQYFYETKCNPMGYTKEGCRGIDKRHWNSQCRTTQSYVRALTMDSKKRIGWRFIRIDTSCVCTLTIKRGR |  | 69 nM |

Reference: paper PMC6065357, “Structural insights into SorCS2–Nerve Growth Factor complex formation” (Nature Communications, 2018)
